Assays:
BLMFL [1] = target: T1, BLMFL (Homo sapiens, UniProt P54132 1-1417); test: competition fluorescence anisotropy; vs ss54-FLU; 5 mM MgCl2; 50 mM Tris-HCl pH 7.5, 50 mM NaCl, 1 mM DTT, 5 mM MgCl2, 50 µg/mL BSA, 25 °C; 10 nM labeled DNA in direct titrations; conditions: protein: recombinant, label: 5'-Cy3 on D3
BLM-dH [2] = target: T2, BLM-dH (Homo sapiens, UniProt P54132 642-1191); test: as above; conditions: protein: recombinant, label: 5'-Cy3 on D3
BLM-dWH [3] = target: T3, BLM-dWH (Homo sapiens, UniProt P54132 642-1077); test: as above; conditions: protein: recombinant, label: 5'-Cy3 on D3
BLMCR [4] = target: T4, BLMCR (Homo sapiens, UniProt P54132 642-1290); test: as above; conditions: protein: recombinant, label: 5'-Cy3 on D3
[5] = target: TOPOIIIalpha (TRR complex);RMI1 (TRR complex);RMI2 (TRR complex) (Homo sapiens;Homo sapiens;Homo sapiens, UniProt Q13472;Q9H9A7;Q96E14 1-1001;1-625;1-147, ||); test: fluorescence anisotropy; 5 mM MgCl2; 50 mM Tris-HCl pH 7.5, 50 mM NaCl, 1 mM DTT, 5 mM MgCl2, 50 µg/mL BSA, 25 °C; 10 nM labeled DNA in direct titrations; conditions: protein: recombinant;recombinant;recombinant, tags: His;;, copies: 1;1;1, label: fluorescein on D3 (in place of Cy3)
BLMFL [6] = target: T1, BLMFL; test: fluorescence anisotropy; no ATP; 5 mM MgCl2; 50 mM Tris-HCl pH 7.5, 50 mM NaCl, 1 mM DTT, 5 mM MgCl2, 50 µg/mL BSA, 25 °C; 10 nM labeled DNA in direct titrations; conditions: protein: recombinant; label: 3'-fluorescein; single strand
BLM-dH [7] = target: T2, BLM-dH; test: as above; conditions: protein: recombinant; label: 3'-fluorescein; single strand
BLM-dWH [8] = target: T3, BLM-dWH; test: as above; conditions: protein: recombinant; label: 3'-fluorescein; single strand
BLMCR [9] = target: T4, BLMCR; test: as above; conditions: protein: recombinant; label: 3'-fluorescein; single strand
[10] = three-stranded D-loop-like structure (D1+D2+D3), D3 3' part invades and pairs with D1
[11] = four-stranded D-loop-like structure (D1+D2+D3+D4), D3 3' part pairs with D1, 5' part with D4
[12] = 20 bp duplex, 3' overhang 21 nt on D3

T3 sequence (P54132 642-1077): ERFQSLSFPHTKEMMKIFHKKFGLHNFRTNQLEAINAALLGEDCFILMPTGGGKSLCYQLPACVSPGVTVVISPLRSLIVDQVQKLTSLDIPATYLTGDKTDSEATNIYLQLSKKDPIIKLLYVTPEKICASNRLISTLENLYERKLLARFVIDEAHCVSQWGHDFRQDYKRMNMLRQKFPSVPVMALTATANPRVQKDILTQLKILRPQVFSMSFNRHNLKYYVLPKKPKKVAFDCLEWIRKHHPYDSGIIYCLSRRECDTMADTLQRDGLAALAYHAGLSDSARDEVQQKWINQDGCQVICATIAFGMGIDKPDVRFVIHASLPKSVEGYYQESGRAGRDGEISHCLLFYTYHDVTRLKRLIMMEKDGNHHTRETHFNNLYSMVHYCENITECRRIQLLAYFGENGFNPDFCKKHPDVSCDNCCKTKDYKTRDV
T4 sequence (P54132 642-1290): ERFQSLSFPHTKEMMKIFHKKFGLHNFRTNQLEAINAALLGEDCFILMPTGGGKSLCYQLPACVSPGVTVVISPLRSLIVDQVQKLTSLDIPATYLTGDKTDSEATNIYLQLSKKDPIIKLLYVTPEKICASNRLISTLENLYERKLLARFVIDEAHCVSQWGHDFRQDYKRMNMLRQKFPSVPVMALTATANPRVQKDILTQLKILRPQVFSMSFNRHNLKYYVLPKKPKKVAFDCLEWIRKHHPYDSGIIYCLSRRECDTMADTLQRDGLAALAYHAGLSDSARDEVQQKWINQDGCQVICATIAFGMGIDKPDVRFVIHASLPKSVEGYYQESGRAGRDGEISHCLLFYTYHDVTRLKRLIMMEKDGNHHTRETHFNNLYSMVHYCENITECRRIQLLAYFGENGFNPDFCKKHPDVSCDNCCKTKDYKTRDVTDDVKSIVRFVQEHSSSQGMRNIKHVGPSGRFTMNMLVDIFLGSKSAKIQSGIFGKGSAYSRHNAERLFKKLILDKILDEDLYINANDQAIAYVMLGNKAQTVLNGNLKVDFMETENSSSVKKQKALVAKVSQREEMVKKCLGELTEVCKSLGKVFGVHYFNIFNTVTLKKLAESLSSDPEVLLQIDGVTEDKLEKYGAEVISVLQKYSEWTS
T1 sequence (P54132 whole entry): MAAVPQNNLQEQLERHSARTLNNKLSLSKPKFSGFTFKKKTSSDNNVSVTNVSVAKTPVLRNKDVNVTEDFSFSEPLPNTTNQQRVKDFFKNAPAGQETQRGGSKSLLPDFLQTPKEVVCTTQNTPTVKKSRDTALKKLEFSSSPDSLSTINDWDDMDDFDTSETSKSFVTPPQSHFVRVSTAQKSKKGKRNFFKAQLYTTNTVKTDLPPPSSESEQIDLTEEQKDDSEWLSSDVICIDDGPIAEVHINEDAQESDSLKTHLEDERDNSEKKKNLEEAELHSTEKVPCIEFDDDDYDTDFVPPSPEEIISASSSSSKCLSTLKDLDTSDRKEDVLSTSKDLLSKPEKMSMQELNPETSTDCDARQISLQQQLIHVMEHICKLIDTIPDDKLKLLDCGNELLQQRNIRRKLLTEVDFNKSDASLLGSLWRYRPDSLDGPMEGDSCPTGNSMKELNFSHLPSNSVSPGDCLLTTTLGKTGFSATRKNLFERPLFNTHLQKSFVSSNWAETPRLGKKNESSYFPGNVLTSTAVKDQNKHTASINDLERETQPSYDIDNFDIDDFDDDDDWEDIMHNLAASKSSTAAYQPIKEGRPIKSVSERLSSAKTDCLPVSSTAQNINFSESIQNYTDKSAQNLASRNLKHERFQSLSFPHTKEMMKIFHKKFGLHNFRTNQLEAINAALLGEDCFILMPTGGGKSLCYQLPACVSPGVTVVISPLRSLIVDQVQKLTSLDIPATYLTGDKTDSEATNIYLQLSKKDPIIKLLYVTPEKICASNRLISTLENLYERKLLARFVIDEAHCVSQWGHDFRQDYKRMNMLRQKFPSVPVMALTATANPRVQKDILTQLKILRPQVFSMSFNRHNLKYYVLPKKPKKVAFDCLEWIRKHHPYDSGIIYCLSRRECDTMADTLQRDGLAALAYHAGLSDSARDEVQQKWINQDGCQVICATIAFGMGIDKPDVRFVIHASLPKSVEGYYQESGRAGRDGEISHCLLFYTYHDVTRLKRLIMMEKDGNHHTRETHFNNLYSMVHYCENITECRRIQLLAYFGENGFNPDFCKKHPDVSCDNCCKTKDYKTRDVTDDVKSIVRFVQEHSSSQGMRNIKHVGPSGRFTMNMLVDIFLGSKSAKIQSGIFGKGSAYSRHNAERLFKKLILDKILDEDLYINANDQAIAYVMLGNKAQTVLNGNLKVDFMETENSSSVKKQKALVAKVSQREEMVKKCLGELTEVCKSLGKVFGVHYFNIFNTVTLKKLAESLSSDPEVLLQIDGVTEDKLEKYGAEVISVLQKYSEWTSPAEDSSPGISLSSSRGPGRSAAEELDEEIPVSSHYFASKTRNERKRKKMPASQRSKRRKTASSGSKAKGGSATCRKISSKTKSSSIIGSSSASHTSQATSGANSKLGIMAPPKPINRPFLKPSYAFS
T2 sequence (P54132 642-1191): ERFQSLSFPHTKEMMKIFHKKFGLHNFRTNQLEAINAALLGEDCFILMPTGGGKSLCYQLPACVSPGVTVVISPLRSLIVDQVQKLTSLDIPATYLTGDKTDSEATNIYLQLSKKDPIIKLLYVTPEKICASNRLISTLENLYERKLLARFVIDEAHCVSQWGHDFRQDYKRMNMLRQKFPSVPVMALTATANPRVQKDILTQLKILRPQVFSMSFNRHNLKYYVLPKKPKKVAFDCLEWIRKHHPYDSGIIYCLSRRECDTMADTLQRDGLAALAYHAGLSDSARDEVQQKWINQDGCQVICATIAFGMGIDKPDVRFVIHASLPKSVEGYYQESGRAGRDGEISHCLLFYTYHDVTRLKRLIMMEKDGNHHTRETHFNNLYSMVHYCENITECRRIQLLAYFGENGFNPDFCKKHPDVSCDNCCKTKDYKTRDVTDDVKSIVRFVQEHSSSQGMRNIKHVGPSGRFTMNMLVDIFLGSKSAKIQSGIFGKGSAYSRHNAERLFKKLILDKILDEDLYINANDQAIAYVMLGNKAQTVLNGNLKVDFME
TOPOIIIalpha (TRR complex);RMI1 (TRR complex);RMI2 (TRR complex), sequence (Q13472 whole entry, chain 1 of 3): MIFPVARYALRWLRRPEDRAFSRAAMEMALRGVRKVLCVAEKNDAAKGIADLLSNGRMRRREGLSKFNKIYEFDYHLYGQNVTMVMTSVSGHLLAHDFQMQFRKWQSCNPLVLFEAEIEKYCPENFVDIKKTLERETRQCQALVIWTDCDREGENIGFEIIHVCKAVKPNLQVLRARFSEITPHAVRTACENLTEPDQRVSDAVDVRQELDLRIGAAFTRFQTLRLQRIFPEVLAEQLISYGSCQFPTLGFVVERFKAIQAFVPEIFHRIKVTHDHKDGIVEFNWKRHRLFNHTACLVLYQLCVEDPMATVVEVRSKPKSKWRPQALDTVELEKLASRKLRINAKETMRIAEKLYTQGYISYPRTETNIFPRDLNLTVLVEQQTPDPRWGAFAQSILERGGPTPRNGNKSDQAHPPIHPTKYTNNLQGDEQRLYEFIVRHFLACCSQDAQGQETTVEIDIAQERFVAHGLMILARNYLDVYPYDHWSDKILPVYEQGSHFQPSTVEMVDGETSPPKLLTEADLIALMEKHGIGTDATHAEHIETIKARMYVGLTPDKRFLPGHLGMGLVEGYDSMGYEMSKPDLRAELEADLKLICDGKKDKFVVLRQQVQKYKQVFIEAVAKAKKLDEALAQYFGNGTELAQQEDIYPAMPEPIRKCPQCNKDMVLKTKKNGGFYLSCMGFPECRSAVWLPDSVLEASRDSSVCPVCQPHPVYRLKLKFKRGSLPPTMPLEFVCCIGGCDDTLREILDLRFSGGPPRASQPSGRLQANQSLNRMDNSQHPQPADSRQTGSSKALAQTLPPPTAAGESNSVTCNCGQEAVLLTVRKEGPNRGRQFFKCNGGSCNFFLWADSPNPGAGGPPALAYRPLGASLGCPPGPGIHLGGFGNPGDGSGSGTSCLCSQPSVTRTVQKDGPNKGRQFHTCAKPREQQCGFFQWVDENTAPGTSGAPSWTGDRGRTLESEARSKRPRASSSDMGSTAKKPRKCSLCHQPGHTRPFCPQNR
TOPOIIIalpha (TRR complex);RMI1 (TRR complex);RMI2 (TRR complex), sequence (Q9H9A7 whole entry, chain 2 of 3): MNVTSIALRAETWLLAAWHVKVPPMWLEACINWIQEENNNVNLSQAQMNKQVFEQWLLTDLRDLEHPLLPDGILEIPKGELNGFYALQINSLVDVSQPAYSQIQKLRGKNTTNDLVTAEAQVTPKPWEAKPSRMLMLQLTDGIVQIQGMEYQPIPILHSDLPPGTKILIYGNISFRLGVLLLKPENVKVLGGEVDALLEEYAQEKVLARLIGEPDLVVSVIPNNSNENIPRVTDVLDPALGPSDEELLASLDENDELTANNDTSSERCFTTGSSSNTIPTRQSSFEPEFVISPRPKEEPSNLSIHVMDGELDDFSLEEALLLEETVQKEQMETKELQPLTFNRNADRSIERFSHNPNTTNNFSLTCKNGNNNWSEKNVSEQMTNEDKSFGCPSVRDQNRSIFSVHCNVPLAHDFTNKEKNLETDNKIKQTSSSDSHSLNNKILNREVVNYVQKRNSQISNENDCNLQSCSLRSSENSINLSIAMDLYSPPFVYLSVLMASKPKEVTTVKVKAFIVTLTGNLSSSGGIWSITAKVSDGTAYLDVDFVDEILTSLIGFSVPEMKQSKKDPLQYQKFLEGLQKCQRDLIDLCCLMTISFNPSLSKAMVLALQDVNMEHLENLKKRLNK
TOPOIIIalpha (TRR complex);RMI1 (TRR complex);RMI2 (TRR complex), sequence (Q96E14 whole entry, chain 3 of 3): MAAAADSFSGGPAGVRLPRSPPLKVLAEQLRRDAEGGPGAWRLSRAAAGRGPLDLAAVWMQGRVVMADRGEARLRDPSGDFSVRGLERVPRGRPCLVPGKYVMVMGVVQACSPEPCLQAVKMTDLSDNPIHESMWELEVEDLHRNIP

B1: DL3 (Cy3) (structured_DNA)
DNA 1: GACGCTGCCGAATTCTACCAGTGCCTTGCTAGGACATCTTTGCCCACCTGCAGGTTCACCC
DNA 2: GGGTGAACCTGCAGGTGGGCGGCTGCTCATCGTAGGTTAGTTGGTAGAATTCGGCAGCGTC
DNA 3: TAAGAGCAAGATGTTCTATAAAAGATGTCCTAGCAAGGCAC
Work on B1 yielded a Kd (BLMFL [1]; [10]) of 1.2 ± 0.8 nM, a Kd (BLM-dH [2]; [10]) of under 1 nM and a Kd (BLM-dWH [3]; [10]) of 56 ± 7 nM. It also gave a Kd (BLMCR [4]; [10]) of under 1 nM.

B2: DL4 (Cy3) (structured_DNA)
DNA 1: GACGCTGCCGAATTCTACCAGTGCCTTGCTAGGACATCTTTGCCCACCTGCAGGTTCACCC
DNA 2: GGGTGAACCTGCAGGTGGGCGGCTGCTCATCGTAGGTTAGTTGGTAGAATTCGGCAGCGTC
DNA 3: TAAGAGCAAGATGTTCTATAAAAGATGTCCTAGCAAGGCAC
DNA 4: TATAGAACATCTTGCTCTTA
B2 showed a Kd (BLMFL [1]; [11]) of 2.3 ± 1.3 nM, a Kd (BLM-dH [2]; [11]) of under 1 nM and a Kd (BLM-dWH [3]; [11]) of 56 ± 13 nM. It also gave a Kd (BLMCR [4]; [11]) of under 1 nM.

B3: DL4 (fluorescein) (structured_DNA)
DNA 1: GACGCTGCCGAATTCTACCAGTGCCTTGCTAGGACATCTTTGCCCACCTGCAGGTTCACCC
DNA 2: GGGTGAACCTGCAGGTGGGCGGCTGCTCATCGTAGGTTAGTTGGTAGAATTCGGCAGCGTC
DNA 3: TAAGAGCAAGATGTTCTATAAAAGATGTCCTAGCAAGGCAC
DNA 4: TATAGAACATCTTGCTCTTA
Work on B3 yielded a Kd ([5]; four-stranded D-loop-like structure (D1+D2+D3+D4)) of 488 ± 70 nM.

B4: 3T (Cy3) (dsDNA)
DNA 1: TAAGAGCAAGATGTTCTATAAAAGATGTCCTAGCAAGGCAC
DNA 2: TATAGAACATCTTGCTCTTA
B4 was tested, and the Kd (BLMFL [1]; [12]) was 10 ± 3 nM, the Kd (BLM-dH [2]; [12]) was 39 ± 3 nM and the Kd (BLM-dWH [3]; [12]) was 430 ± 70 nM. It also gave a Kd (BLMCR [4]; [12]) of 24 ± 2 nM.

B5: DL3 (fluorescein) (structured_DNA)
DNA 1: GACGCTGCCGAATTCTACCAGTGCCTTGCTAGGACATCTTTGCCCACCTGCAGGTTCACCC
DNA 2: GGGTGAACCTGCAGGTGGGCGGCTGCTCATCGTAGGTTAGTTGGTAGAATTCGGCAGCGTC
DNA 3: TAAGAGCAAGATGTTCTATAAAAGATGTCCTAGCAAGGCAC
B5 showed a Kd ([5]; three-stranded D-loop-like structure (D1+D2+D3)) of 13 ± 1 nM.

B6: ss54-FLU (ssDNA)
DNA: TCCTTTTGATAAGAGGTCATTTTTGCGGATGGCTTAGAGCTTAATTGCGCAACG
B6 showed a Kd (BLMFL [6]) of 61 ± 10 nM, a Kd (BLM-dH [7]) of 61 ± 16 nM and a Kd (BLM-dWH [8]) of 520 ± 30 nM. For the same binder, the Kd (BLMCR [9]) was 74 ± 14 nM.
